# Test results reported in publication PMC5800781 (Nature, 2017).
# T1: BARD1 (human, UniProt Q99728 1-777)
# T1 sequence (looked up): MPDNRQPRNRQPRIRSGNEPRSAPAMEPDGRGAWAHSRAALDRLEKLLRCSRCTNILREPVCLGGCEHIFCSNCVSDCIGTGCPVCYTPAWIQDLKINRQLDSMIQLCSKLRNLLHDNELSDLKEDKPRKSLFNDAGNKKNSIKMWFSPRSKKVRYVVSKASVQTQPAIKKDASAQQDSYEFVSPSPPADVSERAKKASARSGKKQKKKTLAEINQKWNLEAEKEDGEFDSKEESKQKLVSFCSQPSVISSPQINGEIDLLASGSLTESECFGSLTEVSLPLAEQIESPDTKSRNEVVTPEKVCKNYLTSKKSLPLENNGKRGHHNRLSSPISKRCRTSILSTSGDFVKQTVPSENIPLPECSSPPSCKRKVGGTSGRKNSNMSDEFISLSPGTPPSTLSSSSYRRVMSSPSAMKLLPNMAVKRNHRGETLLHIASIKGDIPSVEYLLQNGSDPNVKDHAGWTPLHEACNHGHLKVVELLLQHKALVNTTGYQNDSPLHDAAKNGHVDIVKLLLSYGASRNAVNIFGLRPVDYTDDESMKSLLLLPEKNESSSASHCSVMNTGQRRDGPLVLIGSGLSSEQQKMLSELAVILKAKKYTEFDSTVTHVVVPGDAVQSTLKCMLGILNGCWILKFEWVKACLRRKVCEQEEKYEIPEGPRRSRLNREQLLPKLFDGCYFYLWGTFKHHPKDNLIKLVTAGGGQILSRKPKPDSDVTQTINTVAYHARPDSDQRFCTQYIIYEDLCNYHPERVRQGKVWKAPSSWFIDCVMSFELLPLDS
# B1: RAD51 (natural protein, human, UniProt Q06609 1-339, looked up)
# chain: MAMQMQLEANADTSVEEESFGPQPISRLEQCGINANDVKKLEEAGFHTVEAVAYAPKKELINIKGISEAKADKILAEAAKLVPMGFTTATEFHQRRSEIIQITTGSKELDKLLQGGIETGSITEMFGEFRTGKTQICHTLAVTCQLPIDRGGGEGKAMYIDTEGTFRPERLLAVAERYGLSGSDVLDNVAYARAFNTDHQTQLLYQASAMMVESRYALLIVDSATALYRTDYSGRGELSARQMHLARFLRMLLRLADEFGVAVVITNQVVAQVDGAAMFAADPKKPIGGNIIAHASTTRLYLRKGRGETRICKIYDSPCLPEAEAMFAINADGVGDAKD
# Assays:
# [1] = target: B1; assay: pull-down
# [2] = target: BRCA1 (UniProt P38398 1-1863); assay: far-Western, overlay or dot blot
# [3] = target: T1, BARD1; assay: far-Western, overlay or dot blot
# [4] = target: BRCA1-BARD1 complex ( | human, UniProt P38398 1-1863; Q99728 1-777); assay: pull-down
# [5] = target: BRCA1^1-500-BARD1 complex ( | human, UniProt P38398 1-500; Q99728 1-777); assay: pull-down
# [6] = target: BRCA1^Δ758-1064-BARD1 complex ( | human, UniProt P38398 1-1863; Q99728 1-777, Δ758-1064); assay: pull-down
binding result [1],binding result [2],binding result [3],binding result [4],binding result [5],binding result [6],Binder
binds,–,–,–,–,–,"LKEDKPRKSLFNDAGNKKNSIKMWFSPRSKKVRYVVSKAS (domain or fragment, human, UniProt Q99728 123-162, looked up) [GST-BARD1^123-162]"
–,binds,binds,binds,binds,binds,B1
